In article PMC3511314, “Functional Characterization of Two M42 Aminopeptidases Erroneously Annotated as Cellulases” (PLoS ONE, 2012):

Assays:
[1] = biological target: the molecule itself; experiment: SEC; gel filtration on Superdex 200 (16/70 column), final step of the purification, 50 mM Tris, 300 mM NaCl pH 7.3; for CelM all buffers with 1 mM glutathione; oligomer size from the apparent mass at elution
[2] = biological target: the molecule itself; experiment: not stated; unpublished data; oligomeric state of YpdE, method not given

B1: TmPep1050 protein of Thermotoga maritima (TM1050 ORF) (enzyme, UniProt Q9X0E0 1-331, looked up)
chain: MKELIRKLTEAFGPSGREEEVRSIILEELEGHIDGHRIDGLGNLIVWKGSGEKKVILDAHIDEIGVVVTNVDDKGFLTIEPVGGVSPYMLLGKRIRFENGTIGVVGMEGETTEERQENVRKLSFDKLFIDIGANSREEAQKMCPIGSFGVYDSGFVEVSGKYVSKAMDDRIGCAVIVEVFKRIKPAVTLYGVFSVQEEVGLVGASVAGYGVPADEAIAIDVTDSADTPKAIKRHAMRLSGGPALKVKDRASISSKRILENLIEIAEKFDIKYQMEVLTFGGTNAMGYQRTREGIPSATVSIPTRYVHSPSEMIAPDDVEATVDLLIRYLGA
notes: TmPep1050, M42 aminopeptidase of Thermotoga maritima, product of the TM1050 ORF carried by the JCSG plasmid TmCD00089984; predicted molecular weight of the monomer 37.5 kDa; the tag of the JCSG construct is not described; also called 3ISX; source: E. coli MC1061, plasmid TmCD00089984, purified (heat step 60°C, Ni-NTA IMAC, Superdex 200)
- stoichiometry N [1]: 2

B2: YpdE, M42 aminopeptidase of E. coli (enzyme, UniProt P77585 1-345, looked up)
chain: MDLSLLKALSEADAIASSEQEVRQILLEEADRLQKEVRFDGLGSVLIRLNESTGPKVMICAHMDEVGFMVRSISREGAIDVLPVGNVRMAARQLQPVRITTREECKIPGLLDGDRQGNDVSAMRVDIGARSYDEVMQAGIRPGDRVTFDTTFQVLPHQRVMGKAFDDRLGCYLLVTLLRELHDAELPAEVWLVASSSEEVGLRGGQTATRAVSPDVAIVLDTACWAKNFDYGAANHRQIGNGPMLVLSDKSLIAPPKLTAWVETVAAEIGVPLQADMFSNGGTDGGAVHLTGTGVPTVVMGPATRHGHCAASIADCRDILQMQQLLSALIQRLTRETVVQLTDFR
notes: YpdE, one of three M42 aminopeptidases of E. coli; Only named in the discussion as unpublished data; the construct is not described; copies: 12
- stoichiometry N [2]: 12
